For experiment [1], the target named is T1, recombinant soluble HER3 (extracellular domain) (UniProt P21860 20-643, limits assumed).
T1 construct: extracellular domain; also called ERBB3
Nature of the experiment: NRG1 competition ELISA on coated recombinant soluble HER3. A general note: An ELISA detects its analyte on a solid surface through an enzyme-linked reagent.

The target of experiment [2] is T2, HER3 on HER3-transfected SP 2/0 cells (human, UniProt P21860 20-1342).
T2 construct: whole, on cells; The flow cytometry text says only 'HER3 transfected SP2/0 cells'; also called human HER3 expressing SP 2/0 cells
Briefly: flow cytometry, HER3-transfected SP2/0 cells stained with 1 µg/ml antibody, PE-goat anti-mouse IgG. The method, then: The average OD values of triplicates are presented. […] EGFR, HER2 or HER3-transfected SP 2/0 cells were stained with 1 μg/ml of purified antibody, followed by PE-goat anti-mouse IgG.
An ELISA plate was coated with 1 μg/ml of recombinant soluble EGFR, HER2, or the extracellular domain of HER3.
For orientation: In flow cytometry, cells or beads pass a laser one at a time.

T1 sequence (P21860 20-643 limits assumed): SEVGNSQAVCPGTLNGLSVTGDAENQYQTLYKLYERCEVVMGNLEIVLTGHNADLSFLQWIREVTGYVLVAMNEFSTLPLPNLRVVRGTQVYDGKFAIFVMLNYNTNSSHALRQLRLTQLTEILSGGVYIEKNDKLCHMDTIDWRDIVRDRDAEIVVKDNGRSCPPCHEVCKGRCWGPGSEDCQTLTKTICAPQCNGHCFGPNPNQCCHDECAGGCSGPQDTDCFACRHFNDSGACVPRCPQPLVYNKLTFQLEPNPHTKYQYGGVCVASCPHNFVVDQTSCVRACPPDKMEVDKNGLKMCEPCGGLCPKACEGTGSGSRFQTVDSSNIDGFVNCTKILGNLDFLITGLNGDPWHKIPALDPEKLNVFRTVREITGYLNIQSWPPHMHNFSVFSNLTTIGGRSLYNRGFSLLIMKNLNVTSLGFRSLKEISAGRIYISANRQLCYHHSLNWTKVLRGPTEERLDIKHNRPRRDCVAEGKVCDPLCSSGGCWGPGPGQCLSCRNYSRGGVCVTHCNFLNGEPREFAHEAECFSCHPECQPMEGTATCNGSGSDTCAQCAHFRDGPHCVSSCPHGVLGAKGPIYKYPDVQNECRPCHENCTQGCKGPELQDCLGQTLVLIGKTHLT
T2 sequence (P21860 20-1342): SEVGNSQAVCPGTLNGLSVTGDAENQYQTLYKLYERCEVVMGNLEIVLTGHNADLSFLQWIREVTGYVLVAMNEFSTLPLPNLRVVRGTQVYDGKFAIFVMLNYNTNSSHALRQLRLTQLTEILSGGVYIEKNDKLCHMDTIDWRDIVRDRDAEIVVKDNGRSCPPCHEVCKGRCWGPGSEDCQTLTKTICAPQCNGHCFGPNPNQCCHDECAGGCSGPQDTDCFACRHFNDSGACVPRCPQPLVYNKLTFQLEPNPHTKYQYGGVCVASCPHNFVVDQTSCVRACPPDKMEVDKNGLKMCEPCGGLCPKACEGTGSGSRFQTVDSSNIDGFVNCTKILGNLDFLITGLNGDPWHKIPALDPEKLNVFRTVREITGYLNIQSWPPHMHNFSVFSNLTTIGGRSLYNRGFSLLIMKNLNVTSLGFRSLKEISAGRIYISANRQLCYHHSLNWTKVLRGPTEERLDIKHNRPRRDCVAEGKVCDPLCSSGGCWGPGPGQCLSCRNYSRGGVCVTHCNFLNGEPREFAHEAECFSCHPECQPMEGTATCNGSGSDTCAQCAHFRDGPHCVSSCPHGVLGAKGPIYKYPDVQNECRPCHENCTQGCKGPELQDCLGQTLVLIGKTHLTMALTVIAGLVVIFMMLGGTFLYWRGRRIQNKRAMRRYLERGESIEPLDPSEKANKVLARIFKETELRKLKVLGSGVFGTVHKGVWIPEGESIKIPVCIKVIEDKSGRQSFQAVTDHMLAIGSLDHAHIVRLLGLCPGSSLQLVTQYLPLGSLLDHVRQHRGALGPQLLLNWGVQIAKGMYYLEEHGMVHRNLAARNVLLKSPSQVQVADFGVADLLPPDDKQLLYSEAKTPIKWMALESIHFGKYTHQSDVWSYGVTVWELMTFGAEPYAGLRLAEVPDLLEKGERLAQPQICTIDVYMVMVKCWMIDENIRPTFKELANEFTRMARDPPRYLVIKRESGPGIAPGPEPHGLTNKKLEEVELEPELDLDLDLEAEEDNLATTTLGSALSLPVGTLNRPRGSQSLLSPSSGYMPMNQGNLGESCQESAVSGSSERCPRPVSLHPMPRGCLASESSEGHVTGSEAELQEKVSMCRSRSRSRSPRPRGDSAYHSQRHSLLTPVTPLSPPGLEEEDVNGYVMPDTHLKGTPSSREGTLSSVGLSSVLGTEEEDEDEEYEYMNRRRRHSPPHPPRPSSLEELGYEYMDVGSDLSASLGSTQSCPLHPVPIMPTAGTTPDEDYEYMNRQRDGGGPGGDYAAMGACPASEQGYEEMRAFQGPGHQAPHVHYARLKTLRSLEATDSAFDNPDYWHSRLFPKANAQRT

B1: 1A5 antibody (antibody, V domains shown)
VH: QVQLQQSGAELARPGASVKLSCKASGYTFTDNYINWMKQRPGQGLEWIGEIYPGSGNTYYNEKFKGKATLTADKSSSTAYMQLSSLTSEESAVYFCARSPNLRLYYFDYWGQGTTLTVSS
VL: DIVMTQSPATLSVTPGDRVSLSCRASQSINDYLYWYQQKLHESPRLLIKFASHSISGIPSRFSGSGSGSDFTLSINSVEPEDVGVYYCQNGHSFPLTFGAGTKLELK
notes: Hybridoma monoclonal antibody detected with goat anti-mouse IgG; also called ligand-independent HER3 antibody
For the molecule B1, the binding result in experiment [1] and in experiment [2] was “binds” throughout.

B2: 3D4 antibody (antibody, V domains shown)
VH: QVQLQQSGPELVKPGASVRISCKASGYTFTNYFLHWMKQRPGQGLEWIGWIYPGNVNTKYSEKFKGKATLTADKSSSTAYMQLSSLTSEDSAVYFCARSTYYSMDYWGQGTSVTVSS
VL: DIVLTQSPASLAVSLGQRATISCRASESVDSYGNSFMNWYQQKPGQPPKVLIYRASNLESGIPARFSGSGSRTDFTLTITPVEADDVATYYCQQSYEDPPTFGGGTKLEIK
notes: Mouse monoclonal antibody raised against human HER3 expressing SP 2/0 cells; also called ligand-dependent HER3 antibody
With B2, the binding result in experiment [1] and in experiment [2] was “binds” throughout.

Source of the values: patent publication US20140314774A1 (UAB RESEARCH FOUNDATION, published 2014).
